Paper PMC11443517

Assays:
eDEN1-FRET = experiment: FRET or BRET; intramolecular FRET of 50 nM sensor (ratio of emission at 475 nm to 525 nm, excitation 440 nm) titrated with free or precursor Nedd8, binding competes with the reporter interaction; PBS pH 7.4, 0.05% Brij-35, 0.2 mg/mL ovalbumin, 1 mM DTT; single-site fit
[1] = target: eDEN1-FRET-D10N with the Wp2 domain replaced by Wp1; experiment: as above
[2] = target: eDEN1-FRET-D10N construct lacking the C163A mutation; experiment: as above
eDEN1-FRET-D10N = experiment: as above
eDEN1-nanoBiT = experiment: split reporter (BiFC, NanoBiT); intramolecular split nanoluciferase of purified eDEN1-nanoBiT, luminescence at 450 nm falls on binding; titration with the ligand; PBS pH 7.4, 0.2 mg/mL ovalbumin, 1 mM DTT, no Brij-35, 70 uM furimazine, 25 C, 96-well plate; single-site fit

Substance | Kd (eDEN1-FRET) [µM] | Kd [1] [µM] | Kd [2] [µM] | Kd (eDEN1-FRET-D10N) [µM] | Kd (eDEN1-nanoBiT) [µM] | fold selectivity for free Nedd8 compared to precursor Nedd8 (eDEN1-FRET-D10N) [fold]
free Nedd8 (from UniProt Q15843 1-76) (natural protein) | 7.61 | 6.03 | 50.5 | 0.324 | 3.2 | 
precursor Nedd8 (from UniProt Q15843 1-81) (natural protein) |  |  |  |  | 270 | 444
